Measured values from publication PMC7316778 (Nature Communications, 2020).

How the values were obtained:
Experiment in all cases: PamChip microarray peptide phosphorylation
[1] = target: LYN (Homo sapiens, UniProt P07948); details: peptide substrate phosphorylated by LYN
[2] = target: CSK (Homo sapiens, UniProt P41240); details: peptide substrate phosphorylated by CSK
[3] = target: FGR (Homo sapiens, UniProt P09769); details: peptide substrate phosphorylated by FGR
[4] = target: T1, FES^WT (Homo sapiens, UniProt P07332); type: biochemical; details: peptide substrate phosphorylated by FES - WT
T1 construct: human FES cDNA encoding residues 448–822 or human FER cDNA encoding residues 448–820 was amplified by PCR; made in house; host or cells: E. coli BL21(DE3), co-expressing YopH phosphatase
T1 sequence (P07332 448-822): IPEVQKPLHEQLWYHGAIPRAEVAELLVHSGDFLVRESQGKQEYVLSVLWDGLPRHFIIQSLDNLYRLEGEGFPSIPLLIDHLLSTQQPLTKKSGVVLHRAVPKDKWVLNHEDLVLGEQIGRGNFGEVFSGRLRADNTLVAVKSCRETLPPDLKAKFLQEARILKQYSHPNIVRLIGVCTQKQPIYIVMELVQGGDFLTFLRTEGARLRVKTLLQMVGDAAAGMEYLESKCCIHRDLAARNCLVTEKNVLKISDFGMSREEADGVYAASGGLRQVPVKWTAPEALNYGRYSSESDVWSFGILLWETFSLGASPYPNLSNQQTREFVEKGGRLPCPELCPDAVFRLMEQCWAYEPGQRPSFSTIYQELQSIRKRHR

[5] = target: SYK (Homo sapiens, UniProt P43405); details: peptide substrate phosphorylated by SYK
[6] = target: ABL1 (Homo sapiens, UniProt P00519); details: peptide substrate phosphorylated by ABL1
ABL1, sequence (P00519 whole entry): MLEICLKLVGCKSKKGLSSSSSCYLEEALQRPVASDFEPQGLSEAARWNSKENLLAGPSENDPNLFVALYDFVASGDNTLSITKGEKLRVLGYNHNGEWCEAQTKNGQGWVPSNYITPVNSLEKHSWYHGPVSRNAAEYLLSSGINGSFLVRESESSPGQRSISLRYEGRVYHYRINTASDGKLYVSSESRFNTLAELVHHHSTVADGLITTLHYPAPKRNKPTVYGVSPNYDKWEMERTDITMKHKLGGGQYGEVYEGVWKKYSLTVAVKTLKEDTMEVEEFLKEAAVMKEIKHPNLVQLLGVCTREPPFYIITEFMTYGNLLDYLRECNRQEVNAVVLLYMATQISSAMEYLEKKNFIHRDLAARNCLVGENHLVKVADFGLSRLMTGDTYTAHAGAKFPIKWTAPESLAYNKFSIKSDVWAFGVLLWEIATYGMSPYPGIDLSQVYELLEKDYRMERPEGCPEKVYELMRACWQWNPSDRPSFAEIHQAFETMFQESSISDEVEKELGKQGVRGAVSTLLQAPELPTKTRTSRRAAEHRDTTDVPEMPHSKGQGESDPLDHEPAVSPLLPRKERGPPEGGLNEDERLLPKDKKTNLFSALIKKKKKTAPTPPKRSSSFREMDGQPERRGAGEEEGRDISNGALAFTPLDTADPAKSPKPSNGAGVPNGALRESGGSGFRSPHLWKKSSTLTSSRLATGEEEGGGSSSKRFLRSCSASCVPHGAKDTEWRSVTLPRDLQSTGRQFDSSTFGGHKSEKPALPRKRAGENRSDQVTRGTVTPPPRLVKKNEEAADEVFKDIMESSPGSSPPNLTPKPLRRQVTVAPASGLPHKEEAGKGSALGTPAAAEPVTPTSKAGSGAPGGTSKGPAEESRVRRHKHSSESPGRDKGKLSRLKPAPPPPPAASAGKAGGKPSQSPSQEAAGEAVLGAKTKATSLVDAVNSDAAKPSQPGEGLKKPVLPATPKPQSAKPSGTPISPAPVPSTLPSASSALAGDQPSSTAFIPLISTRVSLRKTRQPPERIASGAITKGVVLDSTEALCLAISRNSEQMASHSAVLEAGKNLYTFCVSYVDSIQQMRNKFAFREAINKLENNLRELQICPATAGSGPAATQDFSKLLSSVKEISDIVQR

CSK, sequence (P41240 whole entry): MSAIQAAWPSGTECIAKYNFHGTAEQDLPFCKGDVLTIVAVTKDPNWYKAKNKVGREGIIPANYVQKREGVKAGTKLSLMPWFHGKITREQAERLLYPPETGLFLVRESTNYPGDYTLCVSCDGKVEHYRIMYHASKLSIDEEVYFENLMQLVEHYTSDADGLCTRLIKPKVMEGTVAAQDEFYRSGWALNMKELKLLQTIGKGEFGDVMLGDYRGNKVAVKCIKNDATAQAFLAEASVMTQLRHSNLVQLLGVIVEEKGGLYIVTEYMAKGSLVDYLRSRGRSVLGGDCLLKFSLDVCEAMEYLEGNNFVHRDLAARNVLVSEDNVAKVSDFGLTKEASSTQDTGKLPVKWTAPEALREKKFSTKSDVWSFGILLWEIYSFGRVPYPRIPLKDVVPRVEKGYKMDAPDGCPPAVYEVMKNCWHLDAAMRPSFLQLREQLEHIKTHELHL
LYN, sequence (P07948 whole entry): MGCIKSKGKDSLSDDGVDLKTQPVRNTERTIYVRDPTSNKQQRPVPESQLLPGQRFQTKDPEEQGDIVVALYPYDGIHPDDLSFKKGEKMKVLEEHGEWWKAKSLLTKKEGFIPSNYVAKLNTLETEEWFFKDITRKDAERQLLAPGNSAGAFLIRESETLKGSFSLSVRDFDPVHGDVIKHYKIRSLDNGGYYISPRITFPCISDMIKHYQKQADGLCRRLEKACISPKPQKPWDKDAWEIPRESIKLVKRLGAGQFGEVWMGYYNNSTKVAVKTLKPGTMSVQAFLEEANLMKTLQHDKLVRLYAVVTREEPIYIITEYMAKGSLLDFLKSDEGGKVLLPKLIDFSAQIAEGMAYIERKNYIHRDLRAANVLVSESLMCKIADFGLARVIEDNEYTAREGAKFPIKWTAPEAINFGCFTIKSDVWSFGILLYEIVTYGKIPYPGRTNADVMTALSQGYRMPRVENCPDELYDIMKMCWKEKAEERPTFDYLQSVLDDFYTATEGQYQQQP

Substance	Relative phosphorylation (% of highest signal) [1]	Relative phosphorylation (% of highest signal) [2]	Relative phosphorylation (% of highest signal) [3]	Relative phosphorylation (% of highest signal) [4]	Relative phosphorylation (% of highest signal) [5]	Relative phosphorylation (% of highest signal) [6]
NTRK2_509_521 (PVIENPQYFGITN; UniProt Q16620 509-521, looked up, fragment)	0.113 % of highest signal	-0.422 % of highest signal	-1.0 % of highest signal	-0.566 % of highest signal	0.0821 % of highest signal	-0.0217 % of highest signal
ODBA_340_352_D340K (KDSSAYRSVDEVN; UniProt P12694 340-352, looked up, variant D340K)	0.112 % of highest signal	10.4 % of highest signal	-0.358 % of highest signal	-0.457 % of highest signal	1.5 % of highest signal	5.2 % of highest signal
PERI_458_470 (QRSELDKSSAHSY; UniProt P41219 458-470, looked up, fragment)	-0.0931 % of highest signal	-0.632 % of highest signal	-1.2 % of highest signal	-0.5 % of highest signal	-1.3 % of highest signal	-0.4 % of highest signal
STA5A_687_699 (LAKAVDGYVKPQI; UniProt P42229 687-699, looked up, fragment)	-0.4 % of highest signal	-1.3 % of highest signal	-3.6 % of highest signal	-0.46 % of highest signal	-1.9 % of highest signal	-0.439 % of highest signal
STAT1_694_706 (DGPKGTGYIKTEL; UniProt P42224 694-706, looked up, fragment)	-0.0105 % of highest signal	-1.4 % of highest signal	-3.3 % of highest signal	-0.5 % of highest signal	-1.9 % of highest signal	-0.6 % of highest signal
STAT4_686_698 (TERGDKGYVPSVF; UniProt Q14765 686-698, looked up, fragment)	-0.165 % of highest signal	-0.9 % of highest signal	-4.1 % of highest signal	-0.247 % of highest signal	-1.2 % of highest signal	-0.7 % of highest signal
STAT6_634_646 (MGKDGRGYVPATI; UniProt P42226 634-646, looked up, fragment)	-0.3 % of highest signal	-1.1 % of highest signal	-4.7 % of highest signal	-0.355 % of highest signal	-2.2 % of highest signal	-0.6 % of highest signal
VGFR1_1046_1058_Y1048F (DIFKNPDYVRKGD; UniProt P17948 1046-1058, looked up, variant Y1048F)	-0.0478 % of highest signal	-0.9 % of highest signal	-2.7 % of highest signal	-0.452 % of highest signal	1.1 % of highest signal	-0.449 % of highest signal
VGFR1_1049_1061 (KNPDYVRKGDTRL; UniProt P17948 1049-1061, looked up, fragment)	-0.274 % of highest signal	-0.8 % of highest signal	-2.4 % of highest signal	-0.333 % of highest signal	-0.167 % of highest signal	-0.36 % of highest signal
VGFR1_1162_1174 (VQQDGKDYIPINA; UniProt P17948 1162-1174, looked up, fragment)	-0.153 % of highest signal	-0.737 % of highest signal	-3.4 % of highest signal	2.3 % of highest signal	1.8 % of highest signal	-0.426 % of highest signal
VGFR1_1206_1218 (GSSDDVRYVNAFK; UniProt P17948 1206-1218, looked up, fragment)	-0.1 % of highest signal	-0.459 % of highest signal	-1.0 % of highest signal	-0.0198 % of highest signal	-0.354 % of highest signal	0.0233 % of highest signal
VGFR1_1235_1247 (ATSMFDDYQGDSS; UniProt P17948 1235-1247, looked up, fragment)	-0.0433 % of highest signal	-0.5 % of highest signal	0.9 % of highest signal	-0.11 % of highest signal	17.6 % of highest signal	-0.543 % of highest signal
VGFR1_1320_1332_C1320K/C1321K (KKSPPPDYNSVVL; UniProt P17948 1320-1332, looked up, variant C1320K C1321K)	-0.28 % of highest signal	-0.847 % of highest signal	-2.8 % of highest signal	2.0 % of highest signal	4.3 % of highest signal	-0.0535 % of highest signal
VGFR2_944_956 (RFRQGKDYVGAIP; UniProt P35968 944-956, looked up, fragment)	-0.364 % of highest signal	-0.8 % of highest signal	-1.0 % of highest signal	0.741 % of highest signal	0.9 % of highest signal	-0.378 % of highest signal
VGFR2_989_1001 (EEAPEDLYKDFLT; UniProt P35968 989-1001, looked up, fragment)	2.8 % of highest signal	30.5 % of highest signal	21.5 % of highest signal	10.0 % of highest signal	15.3 % of highest signal	2.3 % of highest signal
VGFR2_1046_1058 (DFGLARDIYKDPD; UniProt P35968 1046-1058, looked up, fragment)	0.243 % of highest signal	2.2 % of highest signal	1.2 % of highest signal	1.1 % of highest signal	0.6 % of highest signal	-0.11 % of highest signal
